Target: human GITR (full length, on cells) (human) (UniProt Q9Y5U5)
Assay: FACS dot plot, spleen cells of GITR humanized (B-hGITR) mice, FITC against mTcRβ PerCP [panel hIgG1]

Sequence of human GITR (full length, on cells) (human) (Q9Y5U5 26-241): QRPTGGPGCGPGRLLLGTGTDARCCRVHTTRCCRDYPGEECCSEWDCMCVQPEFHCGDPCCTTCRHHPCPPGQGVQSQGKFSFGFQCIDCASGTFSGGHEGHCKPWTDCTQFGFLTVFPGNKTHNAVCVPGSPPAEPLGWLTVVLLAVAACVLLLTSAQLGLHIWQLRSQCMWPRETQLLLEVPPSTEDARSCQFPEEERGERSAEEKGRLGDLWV

FL3-H, FL1-H subset (percent of cells in the FITC-high, mTcRβ-positive gate): 1.08%
Substance: isotype control IgG (antibody)
